Values joined by “and” are separate entries in the source; they are usually repeats but may differ in a detail not shown here. Equal values may be shown once. Read-outs that look alike come from different tables or passages of the source.
What was measured:
[1] = biological target: HLA-E*01 on THP1 and U937 cells (human); test: mass spectrometry of peptide recovered from immunopurified HLA-E, THP1 cells
[2] = biological target: HLA-E*01 on THP1 and U937 cells (human); test: mass spectrometry of peptide recovered from immunopurified HLA-E, U937 cells
[3] = biological target: HLA-A*02 on THP1 and U937 cells
[4] = biological target: HLA-E*01 on THP1 and U937 cells (human)

Row | Binder | Peptide quantity (min. copies per cell) (copies per cell) [1] | Peptide quantity (min. copies per cell) (copies per cell) [2] | Peptide quantity (min. copies per cell) (copies per cell) [3] | Peptide quantity (min. copies per cell) (copies per cell) [4]
1 | VMAPRTLIL (modifications not checked) [peptide … (from the HLA-C*03:03 gene in THP1, the HLA-C*01:02 gene in U937)] | 70 | 877 |  | 
2 | VMAPRALLL (modifications not checked) [peptide … (from the HLA-C*07:01 gene)] |  |  | 0 | 35
3 | RLPAKAPLL (modifications not checked) [peptide … from Mycobacterium tuberculosis enoyl-ACP reductase (inhA)] |  |  |  | 52 and 22
4 | VMAPRTLVL (modifications not checked) [peptide … (from the HLA-A*02:01 gene)] | 155 | 586 |  | 
5 | VMAPRTLLL (modifications not checked) [peptide … (from the HLA-A*03:01 and HLA-A*31:01 genes)] |  |  |  | 302
